The experiment concerns the target T1, mouse CD47 (SPR analyte) (mouse, UniProt Q61735 19-140, limits assumed).
T1 sequence (looked up): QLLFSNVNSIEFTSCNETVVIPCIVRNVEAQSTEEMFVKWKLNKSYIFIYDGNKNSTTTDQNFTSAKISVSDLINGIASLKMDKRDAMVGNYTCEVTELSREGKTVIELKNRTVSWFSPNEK
Kind of experiment: SPR (Biacore T200), 25 C; Fab captured by anti-human Fab, mouse CD47 as analyte; steady state.

The results in this text go back to patent US20250002585A1 (CENTESSA PHARMACEUTICALS UK, published 2025).

Experimental: HBS-P+ supplemented with 0.1% BSA was used as running buffer as well as for ligand and analyte dilutions. […] Ligand was captured at a flow rate of 10 μl/min to give an immobilisation level (RL) of ˜ 60 RU. The surface was then allowed to stabilise. Multi-cycle kinetic data was obtained using either human or mouse CD47 as the analyte injected at a flow rate of 30 μl/min. […] For each concentration, the association phases were monitored for 180 seconds, and the dissociation phase was measured for 300 seconds. Regeneration of the sensor chip surface was conducted between cycles using 10 mM glycine pH 2.1. The signal from the reference channel Fcl (no ligand captured) was subtracted from that of Fc2-4 to correct for bulk effect and differences in non-specific binding to a reference surface. The signal from each CD47 blank run (ligand captured but no antigen) was subtracted to correct for differences in surface stability. […] Mouse CD47 binding was analysed using steady state analysis.

B1: positive control anti-CD47 Fab (recombinant Fab using the variable domain sequences used in LB101) (Fab, V domains shown)
VH: QVQLVQSGAEVKKPGESLKISCKGSGYTFTNYYIFWVRQMPGKGLEWMGIINPVDGDTNYNPSFQGQVTISADKSISTAYLQWSSLKASDTAMYYCARGGYTMDRWGQGTLVTVSS
VL: DIVMTQSPLSLPVTPGEPASISCRSSQSLLHSNGYNYLHWYLQKPGQSPQLLIYKVSNRFSGVPDRFSGSGSGTDFTLKISRVEAEDVGVYYCFQNTHTPRTFGGGTKVEIK
For the molecule B1, the Kd is 165 nM.

As a reminder, the Kd is the free concentration of one partner at which half of the binding sites on the other are occupied at equilibrium, for simple one-to-one binding. Lower therefore signals a tighter complex.
